# Test results: the supplement of paper PMC12458215
# ± gives the uncertainty stated by the source.
# System: HEK293T
# Experiment: plasma membrane surface immunostaining intensity (anti-HA, deep receptor scanning) (arbitrary fluorescence units); higher = higher plasma membrane expression
# Details: GPCR class: A
row,Sequence,plasma membrane surface immunostaining intensity
1,MTPLCLNCSVLPGDLYPGGARNPMACNGSAARGHFDPEDLNLTDEALRLKYLGPQQTELFMPICATYLLIFVVGAVGNGLTCLVILRHKAMRTPTNYYLFSLAVSDLLVLLVGLPLELYEMWHNYPFLLGVGGCYFRTLLFEMVCLASVLNVTALSVERYVAVVHPLQARSMVTRAHVRRVLGAVWGLAMLCSLPNTSLHGIRQLHVPCRGPVPDSAVCMLVRPRALYNMVVQTTALLFFCLPMAIMSVLYLLIGLRLRRERLLLMQEAKGRGSAAARSRYTCRLQQHDRGRRQVTKMLFVLVVVFGICWAPFHADRVMWSVVSQWTDGLHLAFQHVHVISGIFFYLGSAANPVLYSLMSSRFRETFQEALCLGACCHRLRPRHSSHSLSRMTTGSTLCDVGSLGSWVHPLAGNDGPEAQQETDPS [NMUR1],2770 ± 700
2,MWPNGSSLGPCFRPTNITLEERRLIASPWFAASFCVVGLASNLLALSVLAGARQGGSHTRSSFLTFLCGLVLTDFLGLLVTGTIVVSQHAALFEWHAVDPGCRLCRFMGVVMIFFGLSPLLLGAAMASERYLGITRPFSRPAVASQRRAWATVGLVWAAALALGLLPLLGVGRYTVQYPGSWCFLTLGAESGDVAFGLLFSMLGGLSVGLSFLLNTVSVATLCHVYHGQEAAQQRPRDSEVEMMAQLLGIMVVASVCWLPLLVFIAQTVLRNPPAMSPAGQLSRTTEKELLIYLRVATWNQILDPWVYILFRRAVLRRLQPRLSTRPRSLSLQPQLTQRSGLQ [TBXA2R],6469 ± 48
3,MWNATPSEEPGFNLTLADLDWDASPGNDSLGDELLQLFPAPLLAGVTATCVALFVVGIAGNLLTMLVVSRFRELRTTTNLYLSSMAFSDLLIFLCMPLDLVRLWQYRPWNFGDLLCKLFQFVSESCTYATVLTITALSVERYFAICFPLRAKVVVTKGRVKLVIFVIWAVAFCSAGPIFVLVGVEHENGTDPWDTNECRPTEFAVRSGLLTVMVWVSSIFFFLPVFCLTVLYSLIGRKLWRRRRGDAVVGASLRDQNHKQTVKMLAVVVFAFILCWLPFHVGRYLFSKSFEPGSLEIAQISQYCNLVSFVLFYLSAAINPILYNIMSKKYRVAVFRLLGFEPFSQRKLSTLKDESSRAWTESSINT [GHSR],1480 ± 520
4,METNFSTPLNEYEEVSYESAGYTVLRILPLVVLGVTFVLGVLGNGLVIWVAGFRMTRTVTTICYLNLALADFSFTATLPFLIVSMAMGEKWPFGWFLCKLIHIVVDINLFGSVFLIGFIALDRCICVLHPVWAQNHRTVSLAMKVIVGPWILALVLTLPVFLFLTTVTIPNGDTYCTFNFASWGGTPEERLKVAITMLTARGIIRFVIGFSLPMSIVAICYGLIAAKIHKKGMIKSSRPLRVLTAVVASFFICWFPFQLVALLGTVWLKEMLFYGKYKIIDILVNPTSSLAFFNSCLNPMLYVFVGQDFRERLIHSLPTSLERALSEDSAPTNDTAANSASPPAETELQAM [FPR2],6515 ± 60
5,MASPALAAALAVAAAAGPNASGAGERGSGGVANASGASWGPPRGQYSAGAVAGLAAVVGFLIVFTVVGNVLVVIAVLTSRALRAPQNLFLVSLASADILVATLVMPFSLANELMAYWYFGQVWCGVYLALDVLFCTSSIVHLCAISLDRYWSVTQAVEYNLKRTPRRVKATIVAVWLISAVISFPPLVSLYRQPDGAAYPQCGLNDETWYILSSCIGSFFAPCLIMGLVYARIYRVAKLRTRTLSEKRAPVGPDGASPTTENGLGAAAGAGENGHCAPPPADVEPDESSAAAERRRRRGALRRGGRRRAGAEGGAGGADGQGAGPGAAESGALTASRSPGPGGRLSRASSRSVEFFLSRRRRARSSVCRRKVAQAREKRFTFVLAVVMGVFVLCWFPFFFSYSLYGICREACQVPGPLFKFFFWIGYCNSSLNPVIYTVFNQDFRRSFKHILFRRRRRGFRQ [ADRA2C],1030 ± 270
6,MDSTIPVLGTELTPINGREETPCYKQTLSFTGLTCIVSLVALTGNAVVLWLLGCRMRRNAVSIYILNLVAADFLFLSGHIICSPLRLINIRHPISKILSPVMTFPYFIGLSMLSAISTERCLSILWPIWYHCRRPRYLSSVMCVLLWALSLLRSILEWMFCDFLFSGANSVWCETSDFITIAWLVFLCVVLCGSSLVLLVRILCGSRKMPLTRLYVTILLTVLVFLLCGLPFGIQWALFSRIHLDWKVLFCHVHLVSIFLSALNSSANPIIYFFVGSFRQRQNRQNLKLVLQRALQDTPEVDEGGGWLPQETLELSGSRLEQ [MRGPRX3],135 ± 14
7,MDPTISTLDTELTPINGTEETLCYKQTLSLTVLTCIVSLVGLTGNAVVLWLLGCRMRRNAFSIYILNLAAADFLFLSGRLIYSLLSFISIPHTISKILYPVMMFSYFAGLSFLSAVSTERCLSVLWPIWYRCHRPTHLSAVVCVLLWALSLLRSILEWMLCGFLFSGADSAWCQTSDFITVAWLIFLCVVLCGSSLVLLIRILCGSRKIPLTRLYVTILLTVLVFLLCGLPFGIQFFLFLWIHVDREVLFCHVHLVSIFLSALNSSANPIIYFFVGSFRQRQNRQNLKLVLQRALQDASEVDEGGGQLPEEILELSGSRLEQ [MRGPRX1],6278 ± 45
8,METPNTTEDYDTTTEFDYGDATPCQKVNERAFGAQLLPPLYSLVFVIGLVGNILVVLVLVQYKRLKNMTSIYLLNLAISDLLFLFTLPFWIDYKLKDDWVFGDAMCKILSGFYYTGLYSEIFFIILLTIDRYLAIVHAVFALRARTVTFGVITSIIIWALAILASMPGLYFSKTQWEFTHHTCSLHFPHESLREWKLFQALKLNLFGLVLPLLVMIICYTGIIKILLRRPNEKKSKAVRLIFVIMIIFFLFWTPYNLTILISVFQDFLFTHECEQSRHLDLAVQVTEVIAYTHCCVNPVIYAFVGERFRKYLRQLFHRRVAVHLVKWLPFLSVDRLERVSSTSPSTGEHELSAGF [CCR1],5560 ± 180

# Same assay, conditions: GPCR class: A (Olfactory)
row,Sequence,plasma membrane surface immunostaining intensity
1,MGMEGLLQNSTNFVLTGLITHPAFPGLLFAIVFSIFVVAITANLVMILLIHMDSRLHTPMYFLLSQLSIMDTIYICITVPKMLQDLLSKDKTISFLGCAVQIFLYLTLIGGEFFLLGLMAYDRYVAVCNPLRYPLLMNRRVCLFMVVGSWVGGSLDGFMLTPVTMSFPFCRSREINHFFCEIPAVLKLSCTDTSLYETLMYACCVLMLLIPLSVISVSYTHILLTVHRMNSAEGRRKAFATCSSHIMVVSVFYGAAFYTNVLPHSYHTPEKDKVVSAFYTILTPMLNPLIYSLRNKDVAAALRKVLGRCGSSQSIRVATVIRKG [OR2T2],130 ± 17
2,MCSGNQTSQNQTASTDFTLTGLFAESKHAALLYTVTFLLFLMALTGNALLILLIHSEPRLHTPMYFFISQLALMDLMYLCVTVPKMLVGQVTGDDTISPSGCGIQMFFYLTLAGAEVFLLAAMAYDRYAAVCRPLHYPLLMNQRVCQLLVSACWVLGMVDGLLLTPITMSFPFCQSRKILSFFCETPALLKLSCSDVSLYKTLMYLCCILMLLAPIMVISSSYTLILHLIHRMNSAAGHRKALATCSSHMIIVLLLFGASFYTYMLPSSYHTAEQDMMVSAFYTIFTPVLNPLIYSLRNKDVTRALRSMMQSRMNQEK [OR2T3],450 ± 200
3,MGNWTAAVTEFVLLGFSLSREVELLLLVLLLPTFLLTLLGNLLIISTVLSCSRLHTPMYFFLCNLSILDILFTSVISPKVLANLGSRDKTISFAGCITQCYFYFFLGTVEFLLLTVMSYDRYATICCPLRYTTIMRPSVCIGTVVFSWVGGFLSVLFPTILISQLPFCGSNIINHFFCDSGPLLALACADTTAIELMDFMLSSMVILCCIVLVAYSYTYIILTIVRIPSASGRKKAFNTCASHLTIVIISSGITVFIYVTPSQKEYLEINKIPLVLSSVVTPFLNPFIYTLRNDTVQGVLRDVWVRVRGVFEKRMRAVLRSRLSSNKDHQGRACSSPPCVYSVKLQC [OR6J1],279 ± 110
4,MEPRNQTSASQFILLGLSEKPEQETLLFSLFFCMYLVMVVGNLLIILAISIDSHLHTPMYFFLANLSLVDFCLATNTIPKMLVSLQTGSKAISYPCCLIQMYFFHFFGIVDSVIIAMMAYDRFVAICHPLHYAKIMSLRLCRLLVGALWAFSCFISLTHILLMARLVFCGSHEVPHYFCDLTPILRLSCTDTSVNRIFILIVAGMVIATPFVCILASYARILVAIMKVPSAGGRKKAFSTCSSHLSVVALFYGTTIGVYLCPSSVLTTVKEKASAVMYTAVTPMLNPFIYSLRNRDLKGALRKLVNRKITSSS [OR1M1],130 ± 31
5,MENGSYTSYFILLGLFNHTRAHQVLFMMVLSIVLTSLFGNSLMILLIHWDHRLHTPMYFLLSQLSLMDVMLVSTTVPKMAADYLTGSKAISRAGCGAQIFFLPTLGGGECFLLAAMAYDRYAAVCHPLRYPTLMSWQLCLRMNLSCWLLGAADGLLQAVATLSFPYCGAHEIDHFFCETPVLVRLACADTSVFENAMYICCVLMLLVPFSLILSSYGLILAAVLHMRSTEARKKAFATCSSHVAVVGLFYGAAIFTYMRPKSHRSTNHDKVVSAFYTMFTPLLNPLIYSVKNSEVKGALTRCMGRCVALSRE [OR2T8],132 ± 16
6,MGNWSTVTEITLIAFPALLEIRISLFVVLVVTYTLTATGNITIISLIWIDHRLQTPMYFFLSNLSFLDILYTTVITPKLLACLLGEEKTISFAGCMIQTYFYFFLGTVEFILLAVMSFDRYMAICDPLHYTVIMNSRACLLLVLGCWVGAFLSVLFPTIVVTRLPYCRKEINHFFCDIAPLLQVACINTHLIEKINFLLSALVILSSLAFTTGSYVYIISTILRIPSTQGRQKAFSTCASHITVVSIAHGSNIFVYVRPNQNSSLDYDKVAAVLITVVTPLLNPFIYSLRNEKVQEVLRETVNRIMTLIQRKT [OR6M1],127 ± 27
7,MANVTLVTGFLLMGFSNIQKLRILYGVLFLLIYLAALMSNLLIITLITLDVKLQTPMYFFLKNLSFLDVFLVSVPIPKFIVNNLTHNNSISILGCAFQLLLMTSFSAGEIFILTAMSYDRYVAICCPLNYEVIMNTGVCVLMASVSWAIGGLFGTAYTAGTFSMPFCGSSVIPQFFCDVPSLLRISCSETLMVIYAGIGVGACLSISCFICIVISYIYIFSTVLKIPTTKGQSKAFSTCFPHLTVFTVFIITAYFVYLKPPSNSPSVIDRLLSVIYTVMPPVFNPVTYSLRNNDMKCALIRLLQKTYGQEAYFI [OR14A2],133 ± 42
8,MWQEYYFLNVFFPLLKVCCLTINSHVVILLPWECYHLIWKILPYIGTTVGSMEEYNTSSTDFTFMGLFNRKETSGLIFAIISIIFFTALMANGVMIFLIQTDLRLHTPMYFLLSHLSLIDMMYISTIVPKMLVNYLLDQRTISFVGCTAQHFLYLTLVGAEFFLLGLMAYDRYVAICNPLRYPVLMSRRVCWMIIAGSWFGGSLDGFLLTPITMSFPFCNSREINHFFCEAPAVLKLACADTALYETVMYVCCVLMLLIPFSVVLASYARILTTVQCMSSVEGRKKAFATCSSHMTVVSLFYGAAMYTYMLPHSYHKPAQDKVLSVFYTILTPMLNPLIYSLRNKDVTGALKRALGRFKGPQRVSGGVF [OR2T1],451 ± 170

# Same assay, conditions: GPCR class: B
row,Sequence,plasma membrane surface immunostaining intensity
1,MRTLLPPALLTCWLLAPVNSIHPECRFHLEIQEEETKCAELLRSQTEKHKACSGVWDNITCWRPANVGETVTVPCPKVFSNFYSKAGNISKNCTSDGWSETFPDFVDACGYSDPEDESKITFYILVKAIYTLGYSVSLMSLATGSIILCLFRKLHCTRNYIHLNLFLSFILRAISVLVKDDVLYSSSGTLHCPDQPSSWVGCKLSLVFLQYCIMANFFWLLVEGLYLHTLLVAMLPPRRCFLAYLLIGWGLPTVCIGAWTAARLYLEDTGCWDTNDHSVPWWVIRIPILISIIVNFVLFISIIRILLQKLTSPDVGGNDQSQYKRLAKSTLLLIPLFGVHYMVFAVFPISISSKYQILFELCLGSFQGLVVAVLYCFLNSEVQCELKRKWRSRCPTPSASRDYRVCGSSFSRNGSEGALQFHRGSRAQSFLQTETSVI [VIPR2],6470 ± 74
